B1: MgCyp51-T6: dsRNA tile of Zymoseptoria tritici Cyp51, 280 bp, location 881-1160 (nucleic acid, listed as Zymoseptoria tritici)
chain: ATGCCATTCCCGACAAGGAGATTGCTCATATGATGATTGCGCTGCTCATGGCCGGCCAGCACTCTTCATCTGCGACCGAGTCCTGGATCACTCTCCGCCTCGCATCCCGCCCCGACATCCAAGACGAACTCCTCCAAGAACAAAAGGATATGCTCGGTGTGAACGCCGACGGCAGTATCAAGGAGCTCACATACGCCAACCTCTCGAAACTCACCCTCCTCAATCAAGTCGTCAAAGAAACCCTTCGTATTCACGCTCCAATCCACTCCATTCTGCGCAA
B2: MgCyp51-T5: dsRNA tile of Zymoseptoria tritici Cyp51, 133 bp, location 1316-1448 (nucleic acid, listed as Zymoseptoria tritici)
chain: AATACAAGCACCTGTCCCCGACGACTGCCCTAGGAAGCATCGCCGAGGAGAAAGAAGACTATGGCTACGGCCTGGTAAGCAAGGGCGCGGCGTCGCCATACTTACCCTTTGGTGCGGGACGACACAGATGTAT
B3: MgCyp51-T13: dsRNA tile of Zymoseptoria tritici Cyp51, 119 bp, location 1517-1635 (nucleic acid, listed as Zymoseptoria tritici)
chain: ACAATGTGGATGGCAGCGACAACGTGGTGGGTACGGATTACAGCAGTTTGTTCAGCCGGCCGCTGTCGCCGGCAGTAGTAAAGTGGGAGAGGAGGGAGGAGAAGGAGGAGAAGAACTGA
modifications: long dsRNA tile, purified, chemistry not given here
B4: MgCyp51-T11: dsRNA tile of Zymoseptoria tritici Cyp51, 172 bp, location 775-946 (nucleic acid, listed as Zymoseptoria tritici)
chain: TCCGAGACATACATGTCGATCATTCAGAAGAGACGAGAGTCCAAAACGGGCGAACATGAGGAAGACATGATCCACAACTTGATGCAGTGCAAATACAAGGACGGCAATGCCATTCCCGACAAGGAGATTGCTCATATGATGATTGCGCTGCTCATGGCCGGCCAGCACTCTT
B5: MgCyp51-T12: dsRNA tile of Zymoseptoria tritici Cyp51, 138 bp, location 1377-1514 (nucleic acid, listed as Zymoseptoria tritici)
chain: TGGCTACGGCCTGGTAAGCAAGGGCGCGGCGTCGCCATACTTACCCTTTGGTGCGGGACGACACAGATGTATCGGCGAGCAATTCGCGTACGTGCAATTGCAGACCATTACAGCGACGATGGTTCGCGATTTCAAGTT
B6: YFP: non-target dsRNA control (YFP, yellow fluorescent protein coding region) (nucleic acid)
chain: TGTAGAAATCCTTCAGCTCGGGGCCGTACTTGGCGAAGCACTGGGCGCCGTAGGTCAGGGTGGTCACCAGGGTGCTCCAGGGCACGGGCACATCGCCGGTGGTGCAGATGAACTGGGCATCCACCTTGCCCACGCTGGCATCGCCGTAGCCCTTGCCGCGGATGCTGAAGGTGTGGCCATCCACATTGCCCTCCATCTCCACCACGTAGGGGATCTTGCCGTGGAACAGCAGGGCGCCGCTGGAGCCCAT
modifications: double-stranded RNA; synthesized partial coding region
B7: MgCyp51-T10: dsRNA tile of Zymoseptoria tritici Cyp51, 172 bp, location 345-516 (nucleic acid, listed as Zymoseptoria tritici)
chain: GGACGTCAACGCGGAGGAGATATACAGCCCGCTGACCACTCCTGTCTTTGGCAAGGATGTGGTTTATGATTGTCCCAATTCGAAGCTCATGGAGCAGAAGAAGTTCGTCAAGTACGGCCTCACAACCTCTGCCCTCCAGTCCTACGTGACCTTGATCGCCGCCGAGACCCGC

tested on: Zymoseptoria tritici (SEPTTR US-184); experiment: Cyp51 dsRNA foliar application bioassay on wheat seedlings, isolate US-184 (Example 5); type: in vivo; details: compared to the non-treated control; isolate not given
Experimental: RNAi (dsRNA) fungicidal solutions were prepared in TE buffer (pH 8.0), which were then mixed with 9 volumes of phosphate buffer (pH 7.5) containing an adjuvant. The fungicidal solutions were applied to wheat seedlings using an automated booth sprayer to run-off. All sprayed plants were allowed to air dry prior to further handling.
The following served as controls: adjuvant in phosphate buffer control, disease pressure control (untreated), and clean plant control (negative control).
(§1) These plants were inoculated with an aqueous spore suspension of Zymoseptoria tritici either prior to or after fungicidal treatments. After inoculation the plants were kept in 100% relative humidity to allow spores to germinate and infect the leaves. The plants were then transferred to a greenhouse set at 20° C. until disease developed.

Molecule	control of Septoria leaf blotch on wheat seedlings
B1	control Septoria leaf blotch
B2	control Septoria leaf blotch

tested on: Zymoseptoria tritici (SEPTTR-184); experiment: Cyp51 dsRNA tile (fragment) foliar application bioassay (Example 6); type: in vivo; details: 1 day protectant; calculated from disease control
Experimental: The 200 ppm concentration for each treatment was prepared by adding the calculated volume of the corresponding dsRNA solution in TE buffer. […] A non-target dsRNA control (YFP), a TE/phosphate buffer control, disease pressure control, and clean plant control were included.
as §1

Molecule	ED50 (ppm) SEPTTR-184 1DP	ED80 (ppm) SEPTTR-184 1DP
B3	<3.125 ppm	>200 ppm
B4	<3.125 ppm	>200 ppm
B1	3.125 ppm	>200 ppm
B5	<3.125 ppm	>200 ppm
B6	>200 ppm	>200 ppm
B7	<3.125 ppm	>200 ppm
B2	<3.125 ppm	>200 ppm

same assay, conditions: 1 day protectant; rate 3.125 ppm; average of 2 trials

Molecule	Disease Control (%) SEPTTR-184 1DP
B3	58%
B4	63%
B1	50%
B5	59%
B6	0%
B7	58%
B2	61%

same assay, conditions: 1 day protectant; rate 12.5 ppm; average of 2 trials

Molecule	Disease Control (%) SEPTTR-184 1DP
B3	59%
B4	61%
B1	55%
B5	64%
B6	15%
B7	64%
B2	66%

same assay, conditions: 1 day protectant; rate 50 ppm; average of 2 trials

Molecule	Disease Control (%) SEPTTR-184 1DP
B3	70%
B4	58%
B1	71%
B5	63%
B6	23%
B7	73%
B2	70%

same assay, conditions: 1 day protectant; rate 200 ppm; average of 2 trials

Molecule	Disease Control (%) SEPTTR-184 1DP
B3	74%
B4	61%
B1	74%
B5	64%
B6	27%
B7	75%
B2	77%

same assay, conditions: 3 days curative; calculated from disease control

Molecule	ED50 (ppm) SEPTTR-184 3DC	ED80 (ppm) SEPTTR-184 3DC
B3	4.167 ppm	>200 ppm
B4	12.500 ppm	>200 ppm
B1	29.167 ppm	>200 ppm
B5	24.219 ppm	>200 ppm
B6	>200 ppm	>200 ppm
B7	32.692 ppm	>200 ppm
B2	<3.125 ppm	>200 ppm

same assay, conditions: 3 days curative; rate 3.125 ppm; average of 2 trials

Molecule	Disease Control (%) SEPTTR-184 3DC
B3	45%
B4	47%
B1	48%
B5	36%
B6	15%
B7	31%
B2	52%

same assay, conditions: 3 days curative; rate 12.5 ppm; average of 2 trials

Molecule	Disease Control (%) SEPTTR-184 3DC
B3	54%
B4	50%
B1	46%
B5	45%
B6	19%
B7	43%
B2	64%

same assay, conditions: 3 days curative; rate 50 ppm; average of 2 trials

Molecule	Disease Control (%) SEPTTR-184 3DC
B3	64%
B4	55%
B1	55%
B5	61%
B6	19%
B7	56%
B2	68%

same assay, conditions: 3 days curative; rate 200 ppm; average of 2 trials

Molecule	Disease Control (%) SEPTTR-184 3DC
B3	59%
B4	42%
B1	61%
B5	71%
B6	35%
B7	58%
B2	78%
